Experiments:
[1] = molecular target: CD16A endogenously expressed on primary human NK cells (human, UniProt P08637 17-254); experiment: flow cytometry on primary human NK cells at 37 °C, biotinylated antibody, streptavidin-FITC, without polyclonal human IgG
Description: Frozen NK cells were thawed, and viability was determined with trypan blue (Sigma-Aldrich, cat.: T8154). Cells have been centrifuged at 400×g, 5 min, 4° C. Cell pellets were resuspended in FACS buffer PBS (Invitrogen, cat.: 392-0434) containing 2% h.i. FCS (Invitrogen, cat.: 10500-064), and 0.1% sodium azide (Sigma, cat.: S8032) at 2×10⁶ cells/mL. 100 μL/well of the cell suspension were transferred into U-shaped 96 well plates, cells were pelleted at 400×g, 5 min. 4° C., and resuspended in 50 μL/well of diluted antibody constructs. […] After 40-50 minutes' incubation at 37° C., cells were washed 3-times with ice-cold FACS buffer. […] After the final incubation step, cells were washed 2-times with ice-cold FACS buffer, and the cell pellet was resuspended in 50 μL FACS buffer. Fluorescence intensity of >1×10⁴ viable cells was analyzed by flow cytometry and the median fluorescence intensity (MFI) was determined for each sample.

[2] = molecular target: T1, cynomolgus CD16 expressed on CHO cells (cAg_36) (cynomolgus, UniProt Q8SPW2 17-254); experiment: flow cytometry on cyCD16-transfected CHO cells (cAg_36), on ice, FITC goat anti-human IgG detection
T1 construct: whole, on cells; also called cyCD16
T1 sequence (Q8SPW2 17-254): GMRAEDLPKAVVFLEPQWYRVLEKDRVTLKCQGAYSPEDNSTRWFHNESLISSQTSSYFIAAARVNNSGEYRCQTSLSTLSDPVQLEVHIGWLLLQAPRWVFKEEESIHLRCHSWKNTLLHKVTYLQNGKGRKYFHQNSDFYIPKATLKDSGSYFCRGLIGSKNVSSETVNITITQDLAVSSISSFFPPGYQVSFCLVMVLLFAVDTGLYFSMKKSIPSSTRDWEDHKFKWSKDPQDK
Description: (§1) After washing in FACS buffer, cells were incubated in 50 μL FACS buffer without antibodies or with titrated antibodies starting at a concentration of 1000 nM followed by elven 3-fold serial dilutions for 40-50 min on ice in the dark. […] After washing, binding was measured by flow cytometry and mean fluorescence intensities (MFI) of cell samples were calculated and corrected for background staining using control cells stained with secondary antibodies only.

[3] = molecular target: T2, human FOLR1 endogenously expressed on tumor cell lines (human, UniProt P15328 25-234); experiment: flow cytometry on NCI-H2110 cells, 37 C, one-site fit of MFI, mean
T2 construct: whole, on cells; also called FOLR1-positive tumor cell lines; FOLR1+ target cells
T2 sequence (P15328 25-234): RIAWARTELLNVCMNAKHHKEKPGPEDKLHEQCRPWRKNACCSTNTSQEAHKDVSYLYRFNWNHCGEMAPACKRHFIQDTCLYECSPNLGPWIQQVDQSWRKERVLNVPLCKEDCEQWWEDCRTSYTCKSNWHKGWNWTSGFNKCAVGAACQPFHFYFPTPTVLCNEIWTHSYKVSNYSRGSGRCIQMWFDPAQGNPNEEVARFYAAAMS
Description: (§2) Cells were collected and centrifuged at 400×g, 5 min, 4° C. Cell pellets were resuspended in FACS buffer (PBS (Invitrogen, cat.: 392-0434) containing 2% h.i. FCS (Invitrogen, cat.: 10500-064), and 0.1% sodium azide (Sigma, cat.: S8032)) at 1-5×10⁶ cells/mL. 100 μL/well of the cell suspension were transferred into U-shaped, 96-well micro plates (0.1-0.5×10⁶ cells per well), cells were pelleted at 400×g, 5 min, 4° C., and resuspended in 100 μL/well of serial dilutions of the indicated antibodies in FACS buffer. After 40-50 min incubation at 37° C., cells were washed 3-times with ice-cold FACS buffer. […] After the final incubation step, cells were washed 2-times with ice-cold FACS buffer, and the cell pellet was resuspended in 100 μL FACS buffer. Fluorescence intensities of >1×10⁴ viable cells were analyzed by flow cytometry and the median fluorescence intensity (MFI) was determined for each sample.
(§3) Equilibrium dissociation constants (KD) of antibody binding, mean and standard deviation (SD) were calculated by plotting MFI values and fitting a non-linear regression model for one-site binding to hyperbolic dose-response curves using GraphPad Prism for Windows (v9; GraphPad Software; La Jolla California USA).
(§4) Specific antibody binding capacity (SABC) as a marker for FOLR1 expression level on cells was determined on all tumor cell lines using QIFIKIT.

[4] = molecular target: T3, human CD16A (158V) expressed on CHO cells (cAg_35) (human, UniProt P08637 17-254); experiment: flow cytometry on huCD16A (158V)-transfected CHO cells (printed sAg_35), on ice, FITC goat anti-human IgG detection
T3 construct: also called huCD16A (158V)
T3 sequence (P08637 17-254 F176V limits assumed): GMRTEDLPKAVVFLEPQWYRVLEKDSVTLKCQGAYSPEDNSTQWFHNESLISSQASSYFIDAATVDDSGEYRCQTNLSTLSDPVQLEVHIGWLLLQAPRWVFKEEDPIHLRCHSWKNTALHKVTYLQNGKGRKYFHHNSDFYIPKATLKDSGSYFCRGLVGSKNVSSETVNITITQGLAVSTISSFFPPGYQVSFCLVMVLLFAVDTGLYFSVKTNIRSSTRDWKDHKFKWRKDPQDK
Description: as §1

[5] = molecular target: T4, human FOLR1-mFc_Avi-tag (sAg_303) (human, UniProt P15328 25-234, limits assumed); experiment: ELISA, plate coated with human FOLR1-mFc_Avi-tag (sAg_303), one-site fit, mean of 3
T4 construct: also called human FOLR1 (sAg_303); recombinant human FOLR1
T4 sequence (P15328 25-234 limits assumed): as the sequence (P15328 25-234) above
Description: (§5) 96 well ELISA plates (F96 Maxisorp Immuno Plate, Nunc, cat: 442404) were coated overnight at 4° C. with 50 μL/well of 10 μg/mL human FOLR1-mFc_Avi-tag in DPBS. After overnight incubation plates were washed three times with PBST and blocked with Candor Blocking solution for 2 h at RT under mild agitation. […] After incubation with the secondary antibodies, the plate was washed five times with PBST and one time with PBS. Chromogenic substrate (1:1 mixture of TMB:TMBB, SeraCare cat: 5120-0048 and 5120-0037) was added and the reaction was stopped by addition of an equal volume of 0.5 M H₂SO₄ after sufficient color development. Absorbance at 450 nm was measured in an ELISA plate reader (Sunrise Absorbance Reader 901000833, Schoeller Instruments). The absorbance values were corrected by subtracting the background of the respective secondary antibody and fitted with a one site binding function (hyperbola) using GraphPad Prism (version 9.3.1. GraphPad Software, La Jolla California USA). KD is the concentration of ligand required to reach half-maximal binding.

[6] = molecular target: T2, human FOLR1 endogenously expressed on …; experiment: flow cytometry on IGROV-1 cells (FOLR1 high) at 37 °C, FITC anti-human IgG detection
Description: as §2

[7] = molecular target: T2, human FOLR1 endogenously expressed on …; experiment: flow cytometry on OVCAR-3 cells, 37 C, one-site fit of MFI, mean
Description: as §2, §3, §4

[8] = molecular target: T4, human FOLR1-mFc_Avi-tag (sAg_303); experiment: ELISA, plate coated with human FOLR1-mFc_Avi-tag, anti-human Fab-HRP detection, A450
Description: as §5

[9] = molecular target: T5, human CD16A (158F) expressed on CHO cells (cAg_34) (human, UniProt P08637 17-254); experiment: flow cytometry on huCD16A (158F)-transfected CHO cells (cAg_34), on ice, FITC goat anti-human IgG detection
T5 construct: also called huCD16A-transfected CHO cells
T5 sequence (P08637 17-254 limits assumed): as the sequence (P08637 17-254 F176V limits assumed) above, with V160F counted along it
Description: as §1

[10] = molecular target: CD16A on in vitro differentiated human macrophages (human, UniProt P08637 17-254); experiment: cell-based or functional assay
Chain of CD16A on in vitro differentiated human macrophages (P08637 17-254 limits assumed): as the sequence (P08637 17-254 F176V limits assumed) above, with V160F counted along it

[11] = molecular target: T2, human FOLR1 endogenously expressed on …; experiment: flow cytometry on HCC-827 cells, 37 C, one-site fit of MFI, mean
Description: as §2, §3, §4

[12] = molecular target: T2, human FOLR1 endogenously expressed on …; experiment: flow cytometry on IGROV-1 cells, 37 C, one-site fit of MFI, mean
Description: as §2, §3, §4

[13] = molecular target: T2, human FOLR1 endogenously expressed on …; experiment: flow cytometry on OVCAR-3 cells (FOLR1 medium) at 37 °C, FITC anti-human IgG detection
Description: as §2

Chain of CD16A endogenously expressed on primary human NK cells (P08637 17-254 limits assumed): as the sequence (P08637 17-254 F176V limits assumed) above, with V160F counted along it

B1: scFv-IgAb_162 (FOLR1×RSV) (bispecific antibody)
heavy: EVQLVESGGGVVQPGRSLRLSCSASGFTFSGYGLSWVRQAPGKGLEWVAMISSGGSYTYYADSVKGRFAISRDNAKNTLFLQMDSLRPEDTGVYFCARHGDDPAWFAYWGQGTPVTVSSASTKGPSVFPLAPSSKSTSGGTAALGCLVKDYFPEPVTVSWNSGALTSGVHTFPAVLQSSGLYSLSSVVTVPSSSLGTQTYICNVNHKPSNTKVDKKVEPKSCDKTHTCPPCPAPEFEGGPSVFLFPPKPKDTLMISRTPEVTCVVVAVSHEDPEVKFNWYVDGVEVHNAKTKPREEQYNSTYRVVSVLTVLHQDWLNGKEYKCKVSNKALPAPIEKTISKAKGQPREPQVYTLPPSREEMTKNQVSLTCLVKGFYPSDIAVEWESNGQPENNYKTTPPVLDSDGSFFLYSKLTVDKSRWQQGNVFSCSVMHEALHNHYTQKSLSLSPGGGGGSGGGGSQVTLRESGPALVKPTQTLTLTCTFSGFSLSTAGMSVGWIRQPPGKALEWLADIWWDDKKHYNPSLKDRLTISKDTSKNQVVLKVTNMDPADTATYYCARDMIFNFYFDVWGQGTTVTVSSGGSGGSGGSGGSGGSGGSDIQMTQSPSTLSASVGDRVTITCSASSRVGYMHWYQQKPGKAPKLLIYDTSKLASGVPSRFSGSGSGTEFTLTISSLQPDDFATYYCFQGSGYPFTFGGGTKVEIK
light: DIQLTQSPSSLSASVGDRVTITCSVSSSISSNNLHWYQQKPGKAPKPWIYGTSNLASGVPSRFSGSGSGTDYTFTISSLQPEDIATYYCQQWSSYPYMYTFGQGTKVEIKRTVAAPSVFIFPPSDEQLKSGTASVVCLLNNFYPREAKVQWKVDNALQSGNSQESVTEQDSKDSTYSLSSTLTLSKADYEKHKVYACEVTHQGLSSPVTKSFNRGEC
notes: also called FOLR1/RSV scFv-IgAb_162; FOLR1×RSV(NIST); copies: 2 + 2
With B1 the binding result [1] was “no binding (tested: about 500 nM)”, the binding result [2] was “no binding (tested: 1000 nM)” and the Kd [3] was 3 nM. The binding result [4] was “no binding (tested: 1000 nM)”, the Kd [5] was 0.06 nM and the “EC50 (read off the curve)” value [6] was about 4 nM. The Kd [7] was 2.5 nM, the “EC50 (read off the curve)” value [8] was about 0.05 nM and the binding result [9] was “no binding (tested: 1000 nM)”. The “Phagocytosis [%], 4 h ADCP, DK-MG cells” value [10] was 0%, the “Phagocytosis [%], 4 h ADCP, HCC-78 cells” value [10] was 0% and the “Phagocytosis [%], 4 h ADCP, HeLa cells” value [10] was 0%. The Kd [11] was 3.7 nM, the Kd [12] was 5.2 nM and the “EC50 (read off the curve)” value [13] was about 2 nM.

From US20240417475A1 (AFFIMED, published 2024)
